Laboratory results: PMC6715661, “Cardiac MLC2 kinase is localized to the Z-disc and interacts with α-actinin2” (Scientific Reports, 2019)

Biological target: T1, Myc-α-actinin2, full length, expressed in HEK293 cells (mouse, UniProt Q9JI91 1-894)
T1 construct: α-actinin2, cloned by RT-PCR from RNA of neonatal mouse hearts into pAdlox (pAdlox-Myc-α-actinin2), full length; also called Myc-tagged full-length α-actinin2; source: HEK293 cells, exogenous expression, in lysate (co-IP); purified from HEK293 cells (BLI)
T1 sequence (Q9JI91 whole entry): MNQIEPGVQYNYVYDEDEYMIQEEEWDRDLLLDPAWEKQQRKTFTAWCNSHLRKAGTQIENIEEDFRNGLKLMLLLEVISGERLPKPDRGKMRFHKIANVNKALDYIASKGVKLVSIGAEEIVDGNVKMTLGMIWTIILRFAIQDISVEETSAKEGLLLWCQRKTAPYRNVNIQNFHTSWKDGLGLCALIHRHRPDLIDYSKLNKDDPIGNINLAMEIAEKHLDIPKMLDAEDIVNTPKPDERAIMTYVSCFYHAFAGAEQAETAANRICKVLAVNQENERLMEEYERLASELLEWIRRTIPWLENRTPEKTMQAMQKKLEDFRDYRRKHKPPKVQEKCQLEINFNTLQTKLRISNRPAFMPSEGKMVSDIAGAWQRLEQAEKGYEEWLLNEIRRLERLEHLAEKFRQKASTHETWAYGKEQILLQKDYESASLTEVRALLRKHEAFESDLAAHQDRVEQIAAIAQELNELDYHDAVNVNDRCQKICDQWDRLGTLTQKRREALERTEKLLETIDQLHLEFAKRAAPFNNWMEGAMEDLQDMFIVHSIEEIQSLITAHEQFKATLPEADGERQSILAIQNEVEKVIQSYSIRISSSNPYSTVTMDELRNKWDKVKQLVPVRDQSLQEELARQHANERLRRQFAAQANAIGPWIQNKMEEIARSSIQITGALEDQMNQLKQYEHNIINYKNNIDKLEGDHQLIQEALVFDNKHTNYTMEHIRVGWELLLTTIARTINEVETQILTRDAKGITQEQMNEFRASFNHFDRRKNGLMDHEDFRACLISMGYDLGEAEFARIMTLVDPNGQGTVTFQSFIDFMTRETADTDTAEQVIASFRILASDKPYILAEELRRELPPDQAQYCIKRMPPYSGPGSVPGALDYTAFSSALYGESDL
Assay: BLI; Octet RED384, 30 °C; biotinylated anti-Myc antibody on streptavidin biosensors captures Myc-α-actinin2 (10 μg/ml, 100 nM); HA-cMLCK in solution, two-fold dilutions from 14 to 1.75 μg/ml; 20 mM Tris, 150 mM NaCl, 0.002% Tween, pH 7.3; global fit, 2:1 heterogeneous ligand analysis
Details: both partners purified

B1: HA-cMLCK, full length, expressed in HEK293 cells (enzyme, mouse, UniProt Q3UIZ8 1-795, looked up)
chain: MSGVSEEDPEGLAPQGLPALGGACLATMDKKLNVLTEKVDRLLHFQEDVTEKLQCVCQGMDHLEQDLHRLEASRELSLAGSGSTPPTTAQAAWPEVLELVRAVRQEGAQHGARLEALFKMVVAVDRAITLVGSTFQNSKVADFIMQGTVPGRKGSLADGPEENKEQAEVAGVKPNHVLTTGGVQADASRTLWEESQKEDIPVRTVEGLPLIINTSLKGADLTQAGASLRQGVEVLGPGQVPLPTEAESRLPETASENTGATLELSVAIDRISEVLTSLKMSQGGGQETSSSKPDCWLSEEAMRLSSGPLPQPLGPLTPDSDIHSGDALPRIPINMQEMATPGELLETQSGSPIGSAEAPGLGTVLEDQIPKGARPFPPLPKRSSNNGGMSAEEEIGSGAEPMRGPSLATRDWRDETVGTTDLQQGIDPGAVSPEPGKDHAAQGPGRTEAGRLSSAAEAAIVVLDDSAAPPAPFEHRVVSIKDTLISAGYTVSQHEVLGGGRFGQVHRCTERSTGLALAAKIIKVKNVKDREDVKNEVNIMNQLSHVNLIQLYDAFESKSSFTLIMEYVDGGELFDRITDEKYHLTELDVVLFTRQICEGVHYLHQHYILHLDLKPENILCVSQTGHQIKIIDFGLARRYKPREKLKVNFGTPEFLAPEVVNYEFVSFPTDMWSVGVITYMLLSGLSPFLGETDAETMNFIVNCSWDFDADTFKGLSEEAKDFVSRLLVKEKSCRMSATQCLKHEWLSHLPAKASGSNVRLRSQQLLQKYMAQSKWKKHFHVVTAVNRLRKFPTCP
notes: cardiac myosin light chain kinase (cMLCK), mouse, full length (residues to 795 by the printed deletion constructs); also called HA-MLCK; HA-full-length cMLCK; source: HEK293 cells, exogenous expression, in lysate (co-IP); purified (BLI)
B1 was tested, and the Kd was 13.4 nM, the koff was 0.000341 s⁻¹ and the kon was 25800 M⁻¹ s⁻¹.
